Where no end group is shown, it is not given here.
What follows are binders tested against HIV HR1 peptide (heptad repeat 1) (HIV) (assay: SPR (BIAcore), HIV HR1 peptide immobilized on CM5 chip).

Binder	Ka	Kd	koff	kon
fusion polypeptide FP-3 (protein) GKSGTEAAGAMFLEAIPMSGGGGSGGGGSGGGGTTWEAWDRAIAEYAARIEALIRAAQEQQERNEAALREL	3.22e+10 M⁻¹	0.031 nM	3.07e-05 s⁻¹	991000 M⁻¹ s⁻¹
fusion polypeptide FP-1 (protein) GRTEAAGAMFLEAIPMSGGGGSGGGGSGGGGTWQEWEQKITALLEQAQIQQEKNEYELQKLDKWASLWEWF	6.29e+08 M⁻¹	1.59 nM	0.000361 s⁻¹	227000 M⁻¹ s⁻¹
fusion polypeptide FP-2 (protein) GRGTEAAGAMFLEAIPMSTTWMEWDKEINNYTSLIHSLIEESQNQQEKNEQELL	1.08e+10 M⁻¹	0.0924 nM	0.000119 s⁻¹	1.29e+06 M⁻¹ s⁻¹

These binders were tested against alpha1-antitrypsin, P01009 (assay: in vitro association of the serpin-finger polypeptide with alpha1-antitrypsin).
Sequence of alpha1-antitrypsin, P01009 (P01009 25-418 limits assumed): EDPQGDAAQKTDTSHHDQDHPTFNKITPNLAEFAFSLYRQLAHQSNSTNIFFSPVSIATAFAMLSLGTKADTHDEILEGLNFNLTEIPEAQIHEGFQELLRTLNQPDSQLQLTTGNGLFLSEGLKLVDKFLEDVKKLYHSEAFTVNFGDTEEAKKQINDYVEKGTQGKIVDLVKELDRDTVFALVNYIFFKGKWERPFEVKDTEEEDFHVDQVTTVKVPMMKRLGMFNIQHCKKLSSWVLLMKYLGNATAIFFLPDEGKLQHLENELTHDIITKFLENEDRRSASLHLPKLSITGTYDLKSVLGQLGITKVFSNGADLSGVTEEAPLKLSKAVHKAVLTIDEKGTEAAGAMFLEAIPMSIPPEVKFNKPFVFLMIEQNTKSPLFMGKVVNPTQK

Binder	in vitro association T1/2
Ac-SEAAASTAVVIA	1.4 h
Ac-TEAAGAMFFEAIPM	10 h
Ac-TEAAGATAVVIA	9.5 h
Ac-SDAAGAMFLEAI	16 h
Ac-TAVVIA [Ac-TAVVIA]	16 h
Ac-TEAAGAMFLEAIVM	10 h
Ac-SEAAASMFLEAI	4 h
Ac-TDAAGATAVVIA	16 h

Source: patent publication US20140045742A1
